assay: yeast display, Sf9 membrane polyspecificity reagent, FACS + sequencing; frameworks hold sequencing errors
Procedure, shortened: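 Nanobodies came from a synthetic yeast display library in Saccharomyces cerevisiae BJ5465, induced with galactose for 36–48 hours and stained for 1 hour at 4 °C with 10% biotinylated, detergent-solubilized Sf9 membrane reagent. Cells were enriched on streptavidin microbeads and then FACS-sorted, with low and high (top ~1%) gates set on anti-HA fluorescence for expression and streptavidin fluorescence for reagent binding. Each polyreactivity label reflects the gate a clone came from. Genes were amplified by colony PCR, sequenced by MiSeq 2 × 250 and filtered by CDR length.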

Sequence | polyreactivity (PSR sort gate)
QVQLVESGGGLVQAGGSLRLSCAASGRTFNRNTMGWYRQAPGKERELVAGITKRGGSTYYADSVKGRFTISRDNAKNTVYLQMNSLKPEDTAVYYCNAATNGSPPDYDYWGQGTQVNVSS | high polyreactivity
QVQLVETGGGIVQAGVSLRISCASSGRTFRWYAMGWSRQSPGKERELVAAITSGGGTYYADSVKGLFTISRDYAKNTVYLQMNRLKREDTAVYYCNKLHRDRYDYWGQGTQVTVSS | high polyreactivity
QVQLVESGGGLVQAGGSLRLSCAASGLTIYYYAMGWYRQAPGKERELVAAITWRGGSTYYADSVKGRFTISRDNAKNTVYLQMNSLKPEDTAVYYCAADPGPYGYYYWGQGTQVTVSS | low polyreactivity
QVQLVESGGGLVQAGGSLRLSCAASGFTFIRYSMGWYRQAPGKERELVATISRSGGRTYYADSVKGRFTISRDNAKNTVYLQMNSLKPEDTAVYYCNAEAIVLNGGGYWGQGTQVTVSS | high polyreactivity
QGQLVESGGGLVQAGGSLRLSCAASGSIFLTNAMGWYRQAPGKEREFVAAIDWGGTITYYADSVKGRFTISRDNAKNTVYLQMNSLKPEDTAVYYCNRVFPPTDYEFDSWGQGTQGTVSS | low polyreactivity
QVQLVESGGGLVQAGGSLRLSFAASGRIFPHNAMGWYRQAPGKERELVAAISSNGGSTYYADSVKGRFTISRDNAKNTVYLQMNSLKPEDTAVYYCAKYRYFAGDGDYWGQGTQVTVSS | low polyreactivity
QVQLVESEGGLVQAGGSLRLSCAASGFIFKYNDMGWYRQAPGKERELVAAIDVRTGLTYYADSVKGRFTISRDNAKTTVYLQMNSLKPEDPAVYYCNADYIQYAYDYWGQGTQVTVSS | high polyreactivity
QVQLVESGGGLVQAGGSHRLSCAASGFTFTHYPMGWYRQAPGKERELVAAISTSGGSTYYADSVKGRFTISRDNAKNSVYLQMNSLKPEDTAVYYCAARRDGWVQWGYYYWGQGTQVTVSS | low polyreactivity
QVQLVESGGRKVQAGGSLRLICAASGSIFYAYTMGRYRQAPGKERELSTYADSVKGRFTISRDNAKNTVYLQMNSLKPEDTAVYYCNARFYKKTLSYRVKYRMEYWGQGTQVTVSS | low polyreactivity
QVQLVESGGGLVQAGGSLRLSCAASGSIFSRNAMGWYRPAPGKERELVAAITSSGGRTYYADSVKGRFTISRDNAKNTVYLQMNSLKPEDTAVYYCAARARGGDWGSGDYWGQGTQVTVSS | high polyreactivity
QVQLVESGGGLVQAGGSLRLSCAASGRIFASYAMGWYRQAPGKERELVAAISKSGGRTYYADSVKGRFTISRDNAKNTVYLQMNSLKPEDTAVYYCAADGYRYYSWTRFSYYSGYDYWGQGTQVTVSS | high polyreactivity
QVQLVESGGGLVQAGGSLRLICAASGRTFAGNAMGWYRQAPGKERELVAAISQGGGYTYYADSVKGRFTISRDNAKNNVYLQMNSLKPEDTAVYYCAAEIPRRWASFATLWYDYLGQGTQVTVSS | low polyreactivity
QVQLVESGGGLVQAGGSLRLSCAASGRTFYKNAMGWYRQAPWKERELVAAISYGGGSTYYADSVKGRFTISRDNAKNTVYLQMNSLKPEDTAVYYCATQLPFRKPWHDYWGQGTQVTVSS | high polyreactivity
QVQLVESGGGLVQAGGSLRLSCAASGSSLTYNAMGWYRQAPGKERELVAVISARGGRTYYADSVKGRFTISRDNAKNTVYLQMNSLKPEDTAVYYCAAVFYYSYYRITSGDYWGQGTQVTVSS | high polyreactivity
QVQLVESGGGLVQAGGSLRLSCAASGFTSWDNDMGWYRQAPGKERELVAAMSRGGSTNYADSVKGRFTISRDNAKNTVYLQMNSLKPEDTAVYYCAAGSYAGFAVIGYYYWGQGTQVTVSS | low polyreactivity
QVQLVESGGGLVQAGGSLRLSCAASGSTSSYYAMGWYRQAPGKERELVAAIRTSGRTYYADSVKGRFTISRDNAKNTVYLQMNSLKPEDTAVYYCNAVYVSPDYDSWGQGTQVTVSS | high polyreactivity
QVQLVESGGGLVQAGGSLRLSCAASGSTFLSYAMGWYRQAPGKERELVAAITSGGRTYYADSVKGRFTISRDNAKNTVYLQMNSLKPEDTAVYYCAAVTGRFGYWGQGTQVTVSS | high polyreactivity
QVQLVESGGGLVQAGGSLRLSCAASGYTFYSYAMGWYRQEPGKERELVAAIRTGGGTIYADSVKGRFTISRDNAKNTVYLQMNSLKPEDTAVYYCAAESGYPVYTYVSSGDYWGQGTQVTVSS | low polyreactivity
QVQLVESGGGLVQAGGSLRLSCAASGSISRRYVMGWYRQAPGKERELVAAISTSGGSTYYADSVKGRFTISRDNAKNTVYLQMNSLKPEDTAVYYCAADLPVQGGFDYWGQGTQVTVSS | low polyreactivity
QVQLVESGGGLVQAGGSLRLSCAASGRTFPGYTMGWSRQAPGKERELVAAISYSGGSTYYADSVKGRFTISRDNAKNTVYLQMYSLKPEDTAVYYCAAAYDRQRRYSWVGERYYWGQGTQVTVSS | high polyreactivity
QVQLVESGGGLVQAGGSLRLSCAASGITFYGYAMGWYRQAPGKERELVAAITRGGSTNYADSVKGRFTISRDNAKITPYLQMNSLKPEDTAVYYCNTYVGRRPGYGYWGQGTQVTVSS | high polyreactivity

From the nanobody polyreactivity screen of Harvey et al. (2022)
